In patent US20230211007A1 (published 2023):
Positions count from the first letter of the chain named.

T1: CD20 (UniProt P11836 142-188, limits assumed)
T1 construct: Bought reagent
T1 chain (looked up): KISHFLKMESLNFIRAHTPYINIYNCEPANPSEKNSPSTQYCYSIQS

B1: WT Rituximab (antibody, human IgG1, kappa)
heavy: not shown
light: QIVLSQSPAILSASPGEKVTMTCRASSSVSYIHWFQQKPGSSPKPWIYATSNLASGVPVRFSGSGSGTSYSLTISRVEAEDAATYYCQQWTSNPPTFGGGTKLEIKRTVAAPSVFIFPPSDEQLKSGTASVVCLLNNFYPREAKVQWKVDNALQSGNSQESVTEQDSKDSTYSLSSTLTLSKADYEKHKVYACEVTHQGLSSPVTKSFNRGEC
notes: also called anti-CD20 wild-type antibody
B2: anti-CD20 antibody mutant 124C (antibody, human IgG1, kappa)
heavy: not shown
light: B1 light with Q123C
B3: anti-CD20 antibody mutant 166C (antibody, human IgG1, kappa)
heavy: not shown
light: B1 light with Q165C

Biological target: T1, CD20
Test: BLI (Octet), antibody on Pro A probe, CD20 25-200 nM in solution
Description: Antibody samples were dissolved in PBS with a working concentration of 10 μg/mL; CD20 (Beijing SinoBiological Co., Ltd.) was dissolved in PBS and gradiently diluted to concentrations of 25 nM, 50 nM, 75 nM, 100 nM, 150 nM, 200 nM respectively. The working volume was 200 μL.
The data diagram was fitted by OCTET system and data-processing software, and the intermolecular interaction between the antibody and the CD20 was calculated by the software, and shown in KD value.

Row | Kd [nM] | Binder
1 | 5.35 | B1
2 | 8.97 | B2
3 | 4.86 | B3
